Test results published in PMC9035508.
pKd: −log10 of the molar value.

Tests used:
Experiment in all cases: ELISA; FXIII proteins or collagen type III coated on wells at 10 µg/mL (overnight, 4°C), blocked with 0.5% BSA; GPVI-Fc2 added at varied concentrations; bound GPVI detected by 1G5/IRDye 800CW anti-mouse antibody; KD from binding curves (Figure 1B)
[1] = target: FXIII A-subunit (rh-FXIIIA2), recombinant, not fully activated form (human) (UniProt P00488)
[2] = target: Plasma FXIII (FXIIIA2B2), tetrameric, not activated (human) (UniProt P00488)
collagen type III = collagen type III (UniProt P02461)
[3] = target: FXIII A-subunit (activated) (rh-FXIIIAa), thrombin-activated form of rh-FXIIIA2 (human) (UniProt P00488)

Chain of UniProt P02461 (P02461 24-1221): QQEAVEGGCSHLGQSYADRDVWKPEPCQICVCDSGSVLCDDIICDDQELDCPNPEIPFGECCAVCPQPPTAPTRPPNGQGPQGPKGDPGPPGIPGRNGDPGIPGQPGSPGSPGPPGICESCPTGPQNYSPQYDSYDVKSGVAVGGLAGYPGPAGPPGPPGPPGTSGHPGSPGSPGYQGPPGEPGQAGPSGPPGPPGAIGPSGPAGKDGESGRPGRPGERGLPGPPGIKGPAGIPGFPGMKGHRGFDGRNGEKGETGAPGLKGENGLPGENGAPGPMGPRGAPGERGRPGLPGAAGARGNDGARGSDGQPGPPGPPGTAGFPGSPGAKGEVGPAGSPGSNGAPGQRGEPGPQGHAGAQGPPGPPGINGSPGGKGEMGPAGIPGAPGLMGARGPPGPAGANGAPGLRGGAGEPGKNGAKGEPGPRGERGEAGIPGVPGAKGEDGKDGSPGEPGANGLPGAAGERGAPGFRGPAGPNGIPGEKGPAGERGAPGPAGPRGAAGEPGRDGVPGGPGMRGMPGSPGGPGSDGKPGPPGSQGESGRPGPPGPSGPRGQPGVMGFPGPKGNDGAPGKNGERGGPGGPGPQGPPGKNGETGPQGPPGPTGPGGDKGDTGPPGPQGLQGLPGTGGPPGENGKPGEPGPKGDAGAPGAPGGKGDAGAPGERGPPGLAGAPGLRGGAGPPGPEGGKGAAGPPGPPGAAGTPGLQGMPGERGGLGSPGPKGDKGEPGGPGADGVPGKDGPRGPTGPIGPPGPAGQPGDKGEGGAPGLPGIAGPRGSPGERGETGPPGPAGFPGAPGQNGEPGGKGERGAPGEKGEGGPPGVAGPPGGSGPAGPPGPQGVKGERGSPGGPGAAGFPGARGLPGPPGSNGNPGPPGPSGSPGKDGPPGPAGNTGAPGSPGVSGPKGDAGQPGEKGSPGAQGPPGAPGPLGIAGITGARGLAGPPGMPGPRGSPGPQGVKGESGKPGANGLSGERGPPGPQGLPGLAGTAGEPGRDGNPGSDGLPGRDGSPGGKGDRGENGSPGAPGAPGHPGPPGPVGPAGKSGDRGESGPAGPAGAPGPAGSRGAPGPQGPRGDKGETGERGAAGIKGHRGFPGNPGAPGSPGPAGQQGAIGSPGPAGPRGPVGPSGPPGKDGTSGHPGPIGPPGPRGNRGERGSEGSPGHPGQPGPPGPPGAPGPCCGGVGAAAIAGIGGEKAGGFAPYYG

## GPVI-Fc2 (recombinant human GPVI extracellular domain, dimer) (from UniProt Q9HCN6 21-267) (Fc fusion)
[1]
  pKd: 6.44
[2]
  pKd: 6.67
Collagen type III
  pKd: 6.74
[3]
  pKd: 6.85
